Source: patent US20240383988A1

Assays:
human EGFR (human) [1] = target: human EGFR (human) (UniProt P00533); test: kinetics table of FIG. 2 (SPR is told in paragraph 123 for the other clones of the table); column head 10^-4 (s-1)
human EGFR (human) [2] = target: human EGFR (human) (UniProt P00533); test: kinetics table of FIG. 2 (SPR is told in paragraph 123 for the other clones of the table); column head 10^5 (s-1M-1)

B1: ER-2b (antibody, part only; not given: common light chain, V domains shown, part only)
VH: EVQLVESGGGLVQPGGSLRLSCAASGFNIYYAAMHWVRQAPGKGLEWVAFISPYYSYTSYADSVKGRFTISADTSKNTAYLQMNSLRAEDTAVYYCARYFHSSWYESSSPRAYYPGMDYWGQGTLVTVSS
- koff (human EGFR (human) [1]): 5e-05 s⁻¹
- kon (human EGFR (human) [2]): 280000 M⁻¹ s⁻¹
